Data published in patent US20060264603A1 (DYAX, published 2006).
Substitutions are numbered along the chain they refer to. Ends that are not written are not given here.

B1: KKII/3#6 (designed binder)
chain: MHSFCAFKADDGHCKANHQRFFFNIFTRQCEEFSYGGCGGNQNRFESLEECKKMCTRD
notes: LACI-K1 Kunitz domain variant
B2: KKI/3 (a) (designed binder)
chain: B1 chain with H13R, A16G, N17A, Q19L, S34I, G39E
modifications: not fully specified; cysteine pairing not given here
notes: LACI-K1 variant from the first phase of screening; also called KKII/3 (a); clone a
B3: KKI/3 (b) (designed binder)
chain: B1 chain with H13P, N17I, Q19L, S34I, G39E
modifications: not fully specified; cysteine pairing not given here
notes: LACI-K1 variant from the first phase of screening; also called KKII/3 (b); clone b
B4: KKII/3#5 (designed binder)
chain: B1 chain with N17S, H18L, Q19P, S34I
notes: LACI-K1 Kunitz domain variant
B5: LACI-K1 (first Kunitz domain of LACI, residues 50-107 of SEQ ID NO:25) (other)
chain: B1 chain with H13P, N17I, H18M, Q19K, S34I, G39E
notes: also called parental molecule

How the values were obtained:
[1] = biological target: T1, human plasma Kallikrein (Calbiochem, San Diego, Calif., # 420302) (human, UniProt P03952 20-638); test: inhibition; method not described
T1 construct: mature; Bought enzyme coupled to agarose beads with Reactigel (6x); also called pKA; human Kallikrein
T1 sequence (P03952 20-638 limits assumed): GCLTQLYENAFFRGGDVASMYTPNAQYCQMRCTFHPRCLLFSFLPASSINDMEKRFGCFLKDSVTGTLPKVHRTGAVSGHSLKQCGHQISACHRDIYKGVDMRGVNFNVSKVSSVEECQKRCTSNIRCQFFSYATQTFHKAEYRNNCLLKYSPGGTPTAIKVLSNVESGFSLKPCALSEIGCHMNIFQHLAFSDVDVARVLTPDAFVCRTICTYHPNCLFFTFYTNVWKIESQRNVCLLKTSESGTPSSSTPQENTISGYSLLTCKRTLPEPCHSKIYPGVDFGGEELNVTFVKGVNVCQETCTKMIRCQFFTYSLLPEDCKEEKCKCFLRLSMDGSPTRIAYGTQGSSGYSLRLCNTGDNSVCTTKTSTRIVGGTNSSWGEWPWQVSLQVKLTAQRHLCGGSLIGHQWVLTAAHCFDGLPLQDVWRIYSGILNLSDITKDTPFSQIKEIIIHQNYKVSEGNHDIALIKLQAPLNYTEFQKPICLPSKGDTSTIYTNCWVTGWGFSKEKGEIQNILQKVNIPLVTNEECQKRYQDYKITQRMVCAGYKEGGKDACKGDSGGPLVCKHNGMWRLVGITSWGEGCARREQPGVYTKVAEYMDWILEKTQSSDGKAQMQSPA

Plasmin [2] = biological target: T2, Plasmin; test: inhibition; method not described
T2 construct: Protease target in the specificity test
T2 sequence (P00747 97-580, chain 1 of 2): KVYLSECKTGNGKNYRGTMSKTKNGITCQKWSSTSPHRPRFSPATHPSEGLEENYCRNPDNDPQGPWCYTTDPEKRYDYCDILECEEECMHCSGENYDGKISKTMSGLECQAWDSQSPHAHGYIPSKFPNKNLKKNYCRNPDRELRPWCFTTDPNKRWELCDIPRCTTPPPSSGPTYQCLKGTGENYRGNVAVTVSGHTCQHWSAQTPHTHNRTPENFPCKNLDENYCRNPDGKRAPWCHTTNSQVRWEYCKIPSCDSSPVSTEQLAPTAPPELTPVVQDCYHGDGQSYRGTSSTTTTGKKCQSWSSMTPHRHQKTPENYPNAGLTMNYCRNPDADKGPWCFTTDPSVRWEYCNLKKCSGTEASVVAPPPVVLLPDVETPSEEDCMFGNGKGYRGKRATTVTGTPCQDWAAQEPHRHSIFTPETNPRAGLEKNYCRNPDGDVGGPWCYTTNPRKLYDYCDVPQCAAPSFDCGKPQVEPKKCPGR
T2 sequence (P00747 581-810, chain 2 of 2): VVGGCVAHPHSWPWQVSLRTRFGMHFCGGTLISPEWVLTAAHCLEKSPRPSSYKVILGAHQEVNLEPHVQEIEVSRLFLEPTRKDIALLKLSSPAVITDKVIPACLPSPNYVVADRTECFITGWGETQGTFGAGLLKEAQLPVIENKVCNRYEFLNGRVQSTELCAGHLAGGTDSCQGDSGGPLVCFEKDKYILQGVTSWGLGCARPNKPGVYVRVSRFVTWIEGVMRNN

[3] = biological target: T1, human plasma Kallikrein (Calbiochem, …); test: preliminary inhibition measurements; method not described
[4] = biological target: T1, human plasma Kallikrein (Calbiochem, …); test: display-phage binding to kallikrein beads; pfu eluted / input (10^10 pfu)
[5] = biological target: T1, human plasma Kallikrein (Calbiochem, …); test: display-phage binding to kallikrein beads; fraction bound relative to parental
[6] = biological target: T1, human plasma Kallikrein (Calbiochem, …); test: display-phage binding to protease target
Plasmin [7] = biological target: T2, Plasmin; test: display-phage binding to protease target
Thrombin = biological target: T3, Thrombin; test: display-phage binding to protease target
T3 construct: Protease target in the specificity test

Trypsin [8] = biological target: T4, Trypsin; test: display-phage binding to protease target
T4 construct: Protease target in the specificity test

Trypsin [9] = biological target: T4, Trypsin; test: display-phage binding to protease target; trypsin, two washes

Row | Binder | Ki ratio against wild-type LACI and BPTI [1] [times] | Ki (Plasmin [2]) [µM] | Ki [3] [nM] | Fraction Bound [4] | Relative Binding [5] | relative binding (compared to the parental phage display) [6] | relative binding (compared to the parental phage display) (Plasmin [7]) | relative binding (compared to the parental phage display) (Thrombin) | relative binding (compared to the parental phage display) (Trypsin [8]) | relative binding (compared to the parental phage display) (Trypsin [9])
1 | B1 | > 100 | 10 | < 0.5 | 0.0087 fraction of input pfu | 2070 fold relative to LACI(K1) display-phage | – | – | – | – | –
2 | B2 | – | – | – | 3.2e-05 fraction of input pfu | 761 fold relative to LACI(K1) display-phage | – | – | – | – | –
3 | B3 | – | – | – | 0.0022 fraction of input pfu | 524 fold relative to LACI(K1) display-phage | – | – | – | – | –
4 | B4 | – | – | – | 0.0039 fraction of input pfu | 928 fold relative to LACI(K1) display-phage | – | – | – | – | –
5 | B5 | – | – | – | 4.2e-06 fraction of input pfu | 1 fold relative to LACI(K1) display-phage | 1 fold relative to parental phage display | 1 fold relative to parental phage display | 1 fold relative to parental phage display | 1 fold relative to parental phage display | 1 fold relative to parental phage display
